Laboratory results: IntAct's records for PubMed 17875931

Target: itf2_human TCF4 (UniProt P15884)
Sequence (P15884 whole entry): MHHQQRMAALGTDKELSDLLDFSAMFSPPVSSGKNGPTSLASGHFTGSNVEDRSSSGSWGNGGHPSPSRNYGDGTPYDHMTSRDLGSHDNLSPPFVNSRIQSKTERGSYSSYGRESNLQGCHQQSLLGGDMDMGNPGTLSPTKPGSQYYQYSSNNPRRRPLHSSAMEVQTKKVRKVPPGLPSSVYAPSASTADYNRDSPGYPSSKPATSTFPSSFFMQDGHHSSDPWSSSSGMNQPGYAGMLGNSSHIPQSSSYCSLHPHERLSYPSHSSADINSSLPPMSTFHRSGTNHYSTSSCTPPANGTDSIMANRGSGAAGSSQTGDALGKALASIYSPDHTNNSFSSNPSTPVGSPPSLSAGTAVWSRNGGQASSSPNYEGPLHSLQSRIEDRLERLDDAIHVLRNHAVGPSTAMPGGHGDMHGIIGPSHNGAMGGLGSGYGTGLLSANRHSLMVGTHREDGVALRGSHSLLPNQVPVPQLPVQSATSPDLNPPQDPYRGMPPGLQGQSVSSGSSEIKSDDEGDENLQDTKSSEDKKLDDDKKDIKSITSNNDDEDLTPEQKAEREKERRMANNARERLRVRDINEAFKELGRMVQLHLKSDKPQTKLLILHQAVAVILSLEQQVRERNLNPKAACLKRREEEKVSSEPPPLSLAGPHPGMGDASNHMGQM

Sequence of Transcription factor SOX-17 (Mus musculus), Q61473 G103R (Q61473 whole entry G103R): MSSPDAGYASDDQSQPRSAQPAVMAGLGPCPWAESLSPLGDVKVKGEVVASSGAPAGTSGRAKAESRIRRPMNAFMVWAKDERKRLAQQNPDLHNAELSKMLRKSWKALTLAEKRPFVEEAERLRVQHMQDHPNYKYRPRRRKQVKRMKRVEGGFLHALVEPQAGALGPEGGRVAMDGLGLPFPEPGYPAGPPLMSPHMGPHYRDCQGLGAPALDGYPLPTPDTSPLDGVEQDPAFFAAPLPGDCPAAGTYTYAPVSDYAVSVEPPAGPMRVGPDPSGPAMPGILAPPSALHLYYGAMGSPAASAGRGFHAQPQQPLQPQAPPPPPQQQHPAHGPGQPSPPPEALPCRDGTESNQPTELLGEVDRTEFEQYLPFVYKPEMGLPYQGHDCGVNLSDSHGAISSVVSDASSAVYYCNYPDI

effect of a mutation on the interaction: disrupting interaction
Substance: Transcription factor SOX-17 (Mus musculus), Q61473 G103R
